The source of these data is doi:10.1101/2023.06.06.543969 (bioRxiv, 2023).

The target in the assay is biotinylated SARS-CoV-2 fusion peptide (Severe acute respiratory syndrome …, biotin on the N-terminus). Kind of assay: BLI. The following applies: both partners purified.

B1: COV44–62 Fab VH R50W (Fab, V domains shown)
VH: QMQLMQSGAEVKKPGASVTVSCKASGDTFSDYRIHWVRQAPGQGLEWMGWMNPKSGDTNFAQKFQGRVTMTRDMSINTAYMTLSGLTFDDTALYYCASLLIVGGFDPLDDFEVWGQGTMVTISS
VL: QSALTQPPSASGSPGQSVTISCSGTSSDVGGYNFVSWYQHHPGKAPKILIYEVTKRPSGVPDRFSGSKSGNTASLTVSGLQAEDEADYYCSSYGGTNNLLFGGGTKLTVL
As for B1, the binding result is on record as “no binding (tested: 300 nM)”.
